Two molecules from patent US20220073619A1 (IMCHECK THERAPEUTICS, published 2022) can be followed below.

Test [1] has as its target Human BTN3A, membrane displayed on cells (human PBMCs, Daudi cells, SKOV-3 cells) (human), O00481. The experiment in a line: cell-based or functional assay.
Test [2] deals with T1, Human BTN3A1 His-tagged antigen (Sino Biological Cat. No. 15973-H08H) (human, UniProt O00481 30-254).
T1 construct: Bought recombinant protein; also called recombinant human BTN3A1-His; not shown: His tag
T1 sequence (O00481 30-254 limits assumed): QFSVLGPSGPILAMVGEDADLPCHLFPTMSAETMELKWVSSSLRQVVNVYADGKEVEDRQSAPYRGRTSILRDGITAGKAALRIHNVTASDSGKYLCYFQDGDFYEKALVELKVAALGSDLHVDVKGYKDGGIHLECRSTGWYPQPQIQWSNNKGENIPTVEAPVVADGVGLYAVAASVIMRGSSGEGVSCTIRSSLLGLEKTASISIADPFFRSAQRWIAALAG
Description: SPR Biacore T200, single cycle kinetics, BTN3A1-His captured on anti-His CM5 chip, F(ab′)2 as analyte, bivalent analyte model (kd 2), 25 C. The protocol: (§1) Human BTN3A1 His-tagged antigen (Sino Biological, Beijing, China) was diluted in running buffer to a final concentration of 0.4 μg/mL. At the start of each cycle, human BTN3A1-His was captured onto Fc2 of CM5 sensor chip pre-coupled using a His capture kit (GE Healthcare, Little Chalfont, UK) with standard amine chemistry at a flow rate of 10 μL/min. An immobilization level (RL) of ˜34 RU, 16 RU or 11 RU, the different theoretical values to obtain a RMax of ˜50 RU was used for the analytes Fab, F(ab′)₂ and IgG respectively. The surface was then allowed to stabilize. Single cycle kinetic data was obtained with the purified samples (Fab, F(ab′)₂ and IgG) at a flow rate of 40 μL/min to minimize any potential mass transfer effects. The signal from the reference channel Fc1 (no antigen capture) was subtracted from that of Fc2 to correct for differences in non-specific binding to the reference surface. The signal for human BTN3A1-His blank runs (no analyte) were subtracted to correct for differences in surface stability. The association phase for the five injections of increasing concentrations was monitored for 240 seconds each time and a single dissociation phase was measured for 1400 seconds following the last injection of analyte. Regeneration of the chip surface was conducted using two injections of 10 mM glycine-HCL pH 1.5 followed by a stabilization period of 240 seconds.
Background: SPR reads the build-up and loss of mass on a sensor chip optically.

The target in test [3] is T1, Human BTN3A1 His-tagged antigen (Sino …). Description: BLI OctetRed96, F(ab′)2 loaded on FAB2G (anti-human CH1) sensors, human BTN3A1 as analyte 1.87-60 nM, 1:1 model, 30 C. The method, then: All runs (including loading, equilibration, association/dipping of sensors into analyte, dissociation and regeneration) were performed in black 96-well plates (Greiner) at 30° C. with shaking 1000 rpm using an OctetRed96 (ForteBio). […] The association of antibody or fragments with various concentrations of human BTN3A1 (60, 30, 15, 7.5, 3.75 and 1.87 nM) was monitored for 300 s, and the dissociation was followed for typically 500 s in kinetic buffer. Fitting of the data and constant measurements were performed with the Octet Red system software (version 7.1) using the 1:1 model. A control with an irrelevant antibody was used in order to assess the absence of non-specific binding of the target protein.

For test [4] the target is unchanged. Description: SPR Biacore T200, single cycle kinetics, BTN3A1-His captured on anti-His CM5 chip, F(ab′)2 as analyte, bivalent analyte model (kd 1), 25 C. The method, then:
as §1

For test [5] the target is unchanged. The experiment in a line: SPR Biacore T200, single cycle kinetics, BTN3A1-His captured on anti-His CM5 chip, F(ab′)2 as analyte, bivalent analyte model (ka 1), 25 C. The method, then: as §1
Test [6] has the same target. The description is as above. The protocol:
(§2) All single cycle kinetic experiments were run at 25° C. with HBS-P+ running buffer (pH 7.4) containing 0.1% BSA (GE Healthcare, Little Chalfont, UK).
(§3) Human BTN3A1 His-tagged antigen (Sino Biological, Beijing, China) was diluted in running buffer to a final concentration of 0.4 μg/mL. At the start of each cycle, BTN3A1-His was captured onto Fc2 of CM5 sensor chip pre-coupled using a His capture kit (GE Healthcare, Little Chalfont, UK) with standard amine chemistry at a flow rate of 10 μL/min. An immobilization level (RL) of ˜17 RU or 8 RU, the different theoretical values to obtain a RMax of ˜25 RU was used for the analytes Fab and F(ab′)₂ respectively. The surface was then allowed to stabilize. Single cycle kinetics data was obtained with the purified samples (Fab and F(ab′)₂)) at a flow rate of 40 μL/min to minimize any potential mass transfer effects. The signal from the reference channel Fc1 (no antigen capture) was subtracted from that of Fc2 to correct for differences in non-specific binding to the reference surface. […] The signal for BTN3A1-His blank runs (no analyte) were subtracted to correct for differences in surface stability. The association phase for the five injections of increasing concentrations was monitored for 240 seconds each time and a single dissociation phase was measured for 2000 seconds following the last injection of analyte. […]
This is another data set of the same source.

For test [7] the target is unchanged. Description: SPR Biacore T200, single cycle kinetics, BTN3A1-His captured on anti-His CM5 chip, F(ab′)2 as analyte, bivalent analyte model (kd 2), 25 C. The protocol:
as §2, §3
This is another data set of the same source.

For test [8] the target is unchanged. The experiment in a line: SPR Biacore T200, single cycle kinetics, BTN3A1-His captured on anti-His CM5 chip, F(ab′)2 as analyte, bivalent analyte model (kd 1), 25 C. The method, then: as §2, §3
The source holds these as a separate data set.

Read-outs that look alike come from different tables or passages of the source.

B1: Humanized 103.2 (hu103.2) F(ab′)2 fragment (other)
VH: QVQMQQSGAEVKKPGASVKVSCKASGYAFTSYLIHWIKQRPGQGLEWIGVINPRSGDSHYNEKFKDRVTMTADQSISTAYMELSRLRSDDTAVYYCARSDYGAYWGQGTLVTVSS
VL: EIVLTQSPATLSVSPGERATLSCRASQSISNNLHWYQQKPGQAPRLLIKYASQSAFGIPARFSGSGSGTEFTLTISSLQSEDFAVYFCQQSNSWPHTFGQGTKLEIK
For orientation: Kd means the concentration at which binding is half-saturated. Read a high Kd as lower affinity. In general, koff refers to the first-order rate constant of dissociation. A lower koff goes with a long-lived complex. The term kon denotes a measure of how fast the partners come together. Lower therefore signals slower complex formation. In test [1], B1 gave a % CD25+ of Vγ9Vδ2 T cells within PBMCs, 67 nM, 5 days of 43.2%; a % CTV dilution of Vγ9Vδ2 T cells within PBMCs, 67 nM, 5 days of 42%; an EC50 (nM) in Vγ9Vδ2 T cell degranulation assay (CD107) against Daudi of 0.0005 nM; an EC50 (nM) in Vγ9Vδ2 T cell degranulation assay (CD107) against SKOV-3 of 0.0005 nM. In test [2], the “kd 2” value was found to be 35.9 s⁻¹. Further, in test [3], binding was put at a Kd of 1230 pM, the koff was 0.000243 s⁻¹ and the kon was 198000 M⁻¹ s⁻¹. In test [4], this molecule came in with a koff of 0.00162 s⁻¹. In test [5], this molecule returned a kon of 689000 M⁻¹ s⁻¹.

B2: Chimeric 103.2 F(ab′)2 fragment (other)
VH: QVQMQQSGAEVVRPGTSVKVSCKASGYAFTSYLIHWIKQRPGQGLEWIGVINPRSGDSHYNEKFKDRTTLTADQSSSTAYMQLSSLTSDDSAVYFCARSDYGAYWGQGTLVTVSS
VL: DIVLTQSPVTLSVTPGDSVSLSCRASQSISNNLHWYRQKSHESPRLLIKYASQSIFGIPSRFSGSGSGTEFTLSINSVETEDFGIYFCQQSNSWPHTFGTGTKLELK
B2 had a % CD107+ of Vγ9Vδ2 T cells, co-culture with Daudi cells, fragment at 10 µg/mL in test [1] of 40.8%. The molecule further yielded an association rate constant (kon) in test [6] of 213000 M⁻¹ s⁻¹. For the same molecule, in test [7], the “kd 2” value was 34.1 s⁻¹. This molecule also showed an off-rate (koff) in test [8] of 0.00112 s⁻¹.
